# Measured values reported in the supplement of paper PMC10567573.
# B1: RSPH3 (parent)
# chain: MTVKPAKAASLARNLAKRRRTYLG
# Variants of: B1
# Assay: protein stability index of a GFP-peptide fusion (GPS, HEK-293T) (PSI 1-6); higher = more stable
# Conditions: c terminus: a fixed tail appended
# 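Note: lentivirally expressed fusions sorted by FACS into six bins by GFP to DsRed ratio, PSI derived from sequencing read proportions per bin multiplied by bin number.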
row,Variant,protein stability index
1,MTVKPYKAASLARNLAKRRRTYLG [A6Y],2.93
2,MTVKPKKAASLARNLAKRRRTYLG [A6K],2.67
3,MTVKPGKAASLARNLAKRRRTYLG [A6G],3.13
4,MTVKPEKAASLARNLAKRRRTYLG [A6E],3.24
5,MTVKPAKAASLAPNLAKRRRTYLG [R13P],2.48
6,MTVKPAKAASLAWNLAKRRRTYLG [R13W],1.8
7,MTVKPAKAASLAHNLAKRRRTYLG [R13H],2.42
8,MTVKPAKAASLALNLAKRRRTYLG [R13L],2.36
9,MTVKPAKAASLAGNLAKRRRTYLG [R13G],2.86
10,MTVKPAKAASLAENLAKRRRTYLG [R13E],3.08
11,MTVKPAKAASLAINLAKRRRTYLG [R13I],2.7
12,MTVKPAKAASLADNLAKRRRTYLG [R13D],2.85
13,MTVKPAKAASLARNKAKRRRTYLG [L15K],3.48
14,MTVKPAKAASLARNRAKRRRTYLG [L15R],3.92
15,MTVKPAKAASLARNTAKRRRTYLG [L15T],3.35
16,MTVKPAKAASLARNAAKRRRTYLG [L15A],4.08
17,MTVKPAKAASLARNVAKRRRTYLG [L15V],4.02
18,MTVKPAKAASLARNLAKRYRTYLG [R19Y],2.42
19,MTVKPAKAASLARNLAKRGRTYLG [R19G],2.85
20,MTVKPAKAASLARNLAKRQRTYLG [R19Q],2.62
21,MTVKPAKAASLARNLAKRIRTYLG [R19I],1.77
22,MTVKPAKAASLARNLAKRCRTYLG [R19C],1.6
23,MTVKPAKAASLARNLAKRERTYLG [R19E],3.49
24,MTVKPAKAASLARNLAKRHRTYLG [R19H],1.51

row,Variant,protein stability index
1,MTVKPAKAASLARNLAKRVRTYLG [R19V],1.45
2,PTVKPAKAASLARNLAKRRRTYLG [M1P],3
3,WTVKPAKAASLARNLAKRRRTYLG [M1W],2.31
4,GTVKPAKAASLARNLAKRRRTYLG [M1G],3.28
5,FTVKPAKAASLARNLAKRRRTYLG [M1F],2.35
6,LTVKPAKAASLARNLAKRRRTYLG [M1L],3.36
7,KTVKPAKAASLARNLAKRRRTYLG [M1K],2.33
8,ITVKPAKAASLARNLAKRRRTYLG [M1I],2.15
9,QTVKPAKAASLARNLAKRRRTYLG [M1Q],3.95
10,NTVKPAKAASLARNLAKRRRTYLG [M1N],3.88
11,YTVKPAKAASLARNLAKRRRTYLG [M1Y],2.55
12,HTVKPAKAASLARNLAKRRRTYLG [M1H],3.45
13,MTVKPAKAASRARNLAKRRRTYLG [L11R],2.18
14,MTVKPAKAASVARNLAKRRRTYLG [L11V],3.3
15,MTVKPAKAASWARNLAKRRRTYLG [L11W],1.83
16,MTVKPAKAASMARNLAKRRRTYLG [L11M],3.16
17,MTVKPAKAASIARNLAKRRRTYLG [L11I],2.61
18,MTVKPAKAASCARNLAKRRRTYLG [L11C],2.54
19,MTVKPAKAASPARNLAKRRRTYLG [L11P],3.68
20,MTVKPAKAASLARNLAKRRRTYLV [G24V],2.17
21,MTVKPAKAASLARNLAKRRRTYLD [G24D],2.04
22,MTVKPAKAASLARNLAKRRRTYLI [G24I],2.35
23,MTVKPAKAASLARNLAKRRRTYLE [G24E],3.54
24,MTVKPAKAASLARNLAKRRRTYLS [G24S],3.15

row,Variant,protein stability index
1,MTVKPAKAASLARNLAKRRRTYLP [G24P],3.63
2,MTVKPAKAASLARNLAKRRRTYLK [G24K],2.68
3,MTVKPAKAASLARNLAKRRRTYLT [G24T],3.42
4,MPVKPAKAASLARNLAKRRRTYLG [T2P],3.41
5,MFVKPAKAASLARNLAKRRRTYLG [T2F],1.95
6,MDVKPAKAASLARNLAKRRRTYLG [T2D],2.88
7,MWVKPAKAASLARNLAKRRRTYLG [T2W],1.58
8,MIVKPAKAASLARNLAKRRRTYLG [T2I],2.45
9,MTVKPAKARSLARNLAKRRRTYLG [A9R],2.42
10,MTVKPAKANSLARNLAKRRRTYLG [A9N],3.58
11,MTVKPAKAFSLARNLAKRRRTYLG [A9F],2.62
12,MTVKPAKATSLARNLAKRRRTYLG [A9T],3.11
13,MTVKPAKAASLARNLAKRRETYLG [R20E],2.81
14,MTVKPAKAASLARNLAKRRVTYLG [R20V],1.63
15,MTVKPAKAASLARNLAKRRQTYLG [R20Q],3.83
16,MTVKPAKAASLARNLAKRRCTYLG [R20C],1.91
17,MTFKPAKAASLARNLAKRRRTYLG [V3F],3.79
18,MTDKPAKAASLARNLAKRRRTYLG [V3D],3.02
19,MTKKPAKAASLARNLAKRRRTYLG [V3K],3.29
20,MTVKPAKAASLARNLAKARRTYLG [R18A],3.3
21,MTVKPAKAASLARNLAKWRRTYLG [R18W],2.55
22,MTVKPAKAASLARNLAKFRRTYLG [R18F],2.71
23,MTVKPAKAASLARNLAKMRRTYLG [R18M],2.38
24,MTVKPAKAASLARNLAKVRRTYLG [R18V],2.91

row,Variant,protein stability index
1,MTVKPAKAASLARNLAKERRTYLG [R18E],3.33
2,MTVKPAKAASLARNLAKGRRTYLG [R18G],3.22
3,MTVKPAKAASLARNLAKNRRTYLG [R18N],2.31
4,MTVKPAKAASLARNLAKYRRTYLG [R18Y],2.27
5,MTVKPAKAASLARNLAKPRRTYLG [R18P],2.38
6,MTVKPAKAASLARSLAKRRRTYLG [N14S],2.62
7,MTVKPAKAASLARWLAKRRRTYLG [N14W],2.67
8,MTVKPAKAASLARELAKRRRTYLG [N14E],2.88
9,MTVKPAKAASLARILAKRRRTYLG [N14I],1.22
10,MTVKPAKAASLARFLAKRRRTYLG [N14F],1.96
11,MTVKPAKAASLARKLAKRRRTYLG [N14K],2.4
12,MTVKPAKAASLARNLAKRRRTHLG [Y22H],3.84
13,MTVKPAKAASLARNLAKRRRTRLG [Y22R],3.03
14,MTVKPAKAASLARNLAKRRRTPLG [Y22P],3.26
15,MTVKPAKAASLARNLAKRRRTSLG [Y22S],3.23
16,MTVKPAKAASLARNLAKRRRTKLG [Y22K],3.85
17,MTVKPAKAASLARNLYKRRRTYLG [A16Y],2.53
18,MTVKPAKAASLARNLCKRRRTYLG [A16C],2.72
19,MTVKPAKAASLARNLIKRRRTYLG [A16I],2.28
20,MTVKPAKAASLARNLRKRRRTYLG [A16R],3.35
21,MTVKPAKAASLARNLLKRRRTYLG [A16L],2.35
22,MTVKPAKAASLARNLGKRRRTYLG [A16G],3.15
